Results from patent publication US20050079613.

Test system: three human E2 enzymes UbCH2, UbCH3 and UbCH5a (at least one of these three enzymes)

GST fusion of the MARCH-VIII RING-CH domain
formation of high-molecular weight ubiquitin complexes in vitro (anti-ubiquitin blot): The RiNG-CH-GST fusion proteins of all four MARCH-proteins tested were able to catalyze the formation of high-molecular weight molecular ubiquitin complexes in the presence of at least one of these three enzymes
